The record followed here is patent publication US20220064276A1 (SCHOLAR ROCK, published 2022).

The Kd is the equilibrium constant for the complex coming apart. As a reminder, the koff is the rate constant with which the complex falls apart. For orientation: kon means a measure of how fast the partners come together. Read a low kon as slow association.

The target of test [1] is T1, human LTBP1-proTGFβ1 complex (human, UniProt Q14766 347-1721; P01137 30-390).
T1 construct: Large latent complex: one presenting molecule disulfide-linked to a proTGFβ1 dimer; also called Hu LTBP1-proTGFβ1; huLTBP1 proTGFβ1
Put plainly: SPR Biacore 8K, monovalent Fab. The method, then: (§1) Data collection rate was set to 10 Hz and the Biotin CAPture step was performed for 300 seconds with a flow rate of 2 μL/minute. The Biotin CAPture reagent was used after a 1:5 dilution in 1× Biacore running buffer. Biotinylated ligands (the various complexes of TGFβ1) were utilized at a concentration of 10 nM and were immobilized to the sensor chip for 180 seconds with a flow rate of 10 μL/minute. […] Analyte contact time was 120 seconds and the dissociation time was 900 seconds. The regeneration cycle utilized was 120 seconds with a flow rate of 10 μL/minute.
(§2) The evaluation method used was “multi-cycle affinity using capture” and a 1:1 binding model was used. […] Global fits were utilized for every KD determination.
(§3) The monovalent half-binding-time (T^{1/2}) value was at least 45 minutes for each of hLTBP1-proTGFβ1 and hLTBP3-proTGFβ1 complexes. The monovalent T^{1/2} value was less than 5 minutes for each of hGARP-proTGFβ1 and hLRRC33-proTGFβ1 complexes, as measured by SPR.
(SPR reads the build-up and loss of mass on a sensor chip optically.)

For test [2], the target named is T2, human LTBP3-proTGFβ1 complex (human, UniProt Q9NS15 44-1303; P01137 30-390, limits assumed).
T2 construct: Exemplary entries; also called Hu LTBP3-proTGFβ1; huLTBP3 proTGFb1
Description: SPR Biacore 8K, monovalent Fab. How it is done:
as §1, §2, §3

The target of test [3] is T3, mouse LTBP1-proTGFβ1 complex (mouse, UniProt Q8CG19 339-1712; P04202 30-390).
T3 construct: Exemplary entries; In the cell assays expressed from mouse LTBP1S and mouse proTGFb1 plasmids in LN229 cells; also called Mo LTBP1-proTGFβ1; MuLTBP1-ProTGFb1
Description: SPR Biacore 8K, monovalent Fab. How it is done: as §1, §2, §3

The target in test [4] is T4, mouse LTBP3-proTGFβ1 complex (mouse, UniProt Q61810 41-1245; P04202 30-390, limits assumed).
T4 construct: Exemplary entries; also called Mo LTBP3-proTGFβ1; Murine LTBP3 proTGFb1
Put plainly: SPR Biacore 8K, monovalent Fab. How it is done:
as §1, §2, §3

Test [5] deals with T5, human GARP-proTGFβ1 complex (human, UniProt Q14392 18-627; P01137 30-390, limits assumed).
T5 construct: Exemplary entries; also called Hu GARP-proTGFβ1; huGARP proTGFb1
Description: SPR Biacore 8K, monovalent Fab. How it is done:
as §1, §2, §3

Test [6] addresses T6, human LRRC33-proTGFβ1 complex (human, UniProt Q86YC3 19-650; P01137 30-390, limits assumed).
T6 construct: Exemplary entries; also called huLRRC33 proTGFb1; HuLRRC33-ProTGFb1
Description: SPR Biacore 8K, monovalent Fab. How it is done: as §1, §2, §3

The target of test [7] is T7, mouse GARP-proTGFβ1 complex (mouse, UniProt G3XA59 18-628; P04202 30-390, limits assumed).
T7 construct: Exemplary entries; also called MuGARP-ProTGFb1; Mu GARP-ProTGFβ1
Description: SPR Biacore 8K, monovalent Fab. How it is done: as §1, §2, §3

Test [8] concerns the target T8, mouse LRRC33-proTGFβ1 complex (mouse, UniProt Q8BMT4 20-651, limits assumed).
T8 construct: also called MuLRRC33-ProTGFb1; Mu LRRC33-ProTGFβ1
Put plainly: SPR Biacore 8K, monovalent Fab. The method, then:
as §1, §2, §3

The target in test [9] is T2, human LTBP3-proTGFβ1 complex. Put plainly: SPR Biacore 8K, Fab over captured antigen. The method, boiled down:
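Biotinylated antigen complexes captured on a Biotin CAPture chip (10 nM, ~200 RU), with Fab fragments injected as analyte by multi-cycle kinetics and regeneration between cycles. Runs in HBS-EP+ pH 7.4, 0 nM analyte as reference; ka, kd and KD from a global 1:1 binding fit.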

Test [10] addresses T1, human LTBP1-proTGFβ1 complex. Put plainly: SPR Biacore 8K, Fab over captured antigen; mean of 5. The method, then:
(§4) A Biacore 8K system was employed to determine the monovalent binding affinity and the kinetic parameters for antigen binding of test antibodies. Association and dissociation kinetics of Fab fragments SR-AB42-HuFab, SR-AB63-HuFab and SR-AB43-HuFab to antigen complexes were measured, and resulting ka, kd and KD are provided below. Briefly, the binding kinetics were evaluated by surface plasmon resonance using Biacore 8K (GE Healthcare). Biotinylated capture antigens were immobilized to the chip (10 nM, ˜200 RU loading). A Biotin CAPture sensor chip was used to capture the biotinylated antigens. […] 0 nM was used as a reference. […] 0 nM was used as a reference. Multi-cycle kinetics was employed where each analyte concentration was injected in a separate cycle and the sensor chip surface was regenerated after each cycle. A11 the assays were carried out in freshly prepared 1× HBS-EP+ buffer (10 mM HEPES, 150 mM NaCl, 3 mM EDTA, 0.05% Tween20, pH 7.4). Data were fit globally to a 1:1 binding model to obtain the kinetic parameters. The sensorgram for 0 nM analyte concentration was used as reference.

Test [11] concerns the target T4, mouse LTBP3-proTGFβ1 complex. Put plainly: SPR Biacore 8K, Fab over captured antigen; mean of 2. The method, then: as §4
Test [12] addresses T1, human LTBP1-proTGFβ1 complex. Description: SPR Biacore 8K, Fab over captured antigen, Rmax fixed. The method, then: (§5) These experiments were performed using the Biacore 8K using the method “multi-cycle kinetics/affinity using Biotin CAPture kit.”
as §1, §2

Test [13] has as its target T2, human LTBP3-proTGFβ1 complex. The description is as above. The method, then: as §5, §1, §2
Test [14] concerns the target T3, mouse LTBP1-proTGFβ1 complex. Described as above. How it is done: as §5, §1, §2
In test [15] the target is T4, mouse LTBP3-proTGFβ1 complex. The test is described as above. How it is done:
as §5, §1, §2

Test [16] addresses T5, human GARP-proTGFβ1 complex. The test is described as above. How it is done:
as §5, §1, §2

The target in test [17] is T6, human LRRC33-proTGFβ1 complex. The description is as above. The method, then: as §5, §1, §2
The target in test [18] is T7, mouse GARP-proTGFβ1 complex. The test is described as above. How it is done:
as §5, §1, §2

In test [19] the target is T8, mouse LRRC33-proTGFβ1 complex. The description is as above. How it is done:
as §5, §1, §2

Test [20] has as its target T5, human GARP-proTGFβ1 complex. Description: SPR Biacore 8K, Fab up to 100 nM over captured antigen. The method, then:
as §4

In test [21] the target is T6, human LRRC33-proTGFβ1 complex. The test is described as above. The method, then: as §4
For test [22], the target named is LTBP-proTGFβ1: transfected human proTGFβ1 presented by endogenous LTBP1/3 of LN229 cells (human). Description: cell-based or functional assay.
Test [23] deals with T3, mouse LTBP1-proTGFβ1 complex. Put plainly: cell-based or functional assay.
The target of test [24] is T1, human LTBP1-proTGFβ1 complex. Put plainly: Octet BLI, IgG captured. The method, boiled down: (§6)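 IgG captured on the Octet biosensor, with complex antigen associating for 3 min and dissociating for 5 min in kinetics buffer. KD was fitted with a 1:1 binding model for each antibody–antigen pair.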
The target in test [25] is T2, human LTBP3-proTGFβ1 complex. Description: Octet BLI, IgG captured. The procedure, abridged: as §6
For orientation: BLI is a label-free optical method that tracks binding on a fibre tip over time.

The target of test [26] is T3, mouse LTBP1-proTGFβ1 complex. Put plainly: Octet BLI, IgG captured. The method, boiled down: as §6
In test [27] the target is T4, mouse LTBP3-proTGFβ1 complex. Put plainly: Octet BLI, IgG captured. The procedure, abridged:
as §6

The target of test [28] is T5, human GARP-proTGFβ1 complex. Put plainly: Octet BLI (N.B. = non-binder under conditions of this assay). How it is done:
Binding affinities of the optimized antibodies were measured by Octet against human LTBP1-proTGFβ1, human LTBP3-proTGFβ1, mouse LTBP1-proTGFβ1, mouse LTBP3-proTGFβ1, and GARP-proTGFβ1 complexes, essentially as described in Example 6. […] The antigens were allowed to associate for 3 minutes followed by a 5-minute dissociation. Kinetics buffer (ForteBio®) was used throughout the experiment, and KD was determined using a 1:1 fitting model for each antibody antigen pair.
Table 9 presents the binding profile and affinity data for the indicated LTBP complex-specific antibodies (IgG1-agly) identified from the light chain optimization cycle 3, determined by Octet.

T1 sequence (Q14766 347-1721 limits assumed, chain 1 of 2): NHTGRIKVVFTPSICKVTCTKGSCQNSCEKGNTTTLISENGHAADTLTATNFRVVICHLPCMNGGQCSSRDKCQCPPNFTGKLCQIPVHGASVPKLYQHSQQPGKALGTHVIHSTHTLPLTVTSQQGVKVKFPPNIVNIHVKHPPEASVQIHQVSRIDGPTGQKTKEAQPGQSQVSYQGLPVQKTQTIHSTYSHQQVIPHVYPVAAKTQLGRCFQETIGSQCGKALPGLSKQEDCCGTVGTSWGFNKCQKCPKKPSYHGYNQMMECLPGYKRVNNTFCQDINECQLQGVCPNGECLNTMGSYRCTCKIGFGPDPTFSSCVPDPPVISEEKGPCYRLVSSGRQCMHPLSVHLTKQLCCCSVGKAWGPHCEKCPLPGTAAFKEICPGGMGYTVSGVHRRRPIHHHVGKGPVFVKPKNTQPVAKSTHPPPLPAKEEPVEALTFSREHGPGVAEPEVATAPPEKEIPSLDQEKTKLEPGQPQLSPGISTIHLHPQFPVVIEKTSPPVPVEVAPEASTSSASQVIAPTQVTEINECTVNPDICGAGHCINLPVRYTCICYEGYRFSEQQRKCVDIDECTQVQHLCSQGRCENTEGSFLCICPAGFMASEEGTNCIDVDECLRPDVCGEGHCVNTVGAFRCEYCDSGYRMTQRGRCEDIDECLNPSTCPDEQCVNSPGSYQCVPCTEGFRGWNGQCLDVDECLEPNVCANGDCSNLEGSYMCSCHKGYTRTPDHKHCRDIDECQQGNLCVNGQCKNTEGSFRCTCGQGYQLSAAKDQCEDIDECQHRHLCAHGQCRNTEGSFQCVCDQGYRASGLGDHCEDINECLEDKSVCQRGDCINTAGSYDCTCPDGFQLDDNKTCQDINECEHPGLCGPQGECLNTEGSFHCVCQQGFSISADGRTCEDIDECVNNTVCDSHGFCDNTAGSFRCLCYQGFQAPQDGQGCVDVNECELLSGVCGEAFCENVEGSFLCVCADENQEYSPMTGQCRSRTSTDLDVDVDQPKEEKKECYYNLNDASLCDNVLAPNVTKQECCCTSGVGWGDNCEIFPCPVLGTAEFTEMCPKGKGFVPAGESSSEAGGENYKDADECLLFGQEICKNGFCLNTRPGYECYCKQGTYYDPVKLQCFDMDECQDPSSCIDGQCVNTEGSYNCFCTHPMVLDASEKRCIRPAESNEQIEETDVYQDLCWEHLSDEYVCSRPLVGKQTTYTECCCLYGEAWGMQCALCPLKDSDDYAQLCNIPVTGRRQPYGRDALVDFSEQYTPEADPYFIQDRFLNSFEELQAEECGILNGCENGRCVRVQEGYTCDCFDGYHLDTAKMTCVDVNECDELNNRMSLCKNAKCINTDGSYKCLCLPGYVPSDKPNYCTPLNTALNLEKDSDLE
T1 sequence (P01137 30-390 limits assumed, chain 2 of 2): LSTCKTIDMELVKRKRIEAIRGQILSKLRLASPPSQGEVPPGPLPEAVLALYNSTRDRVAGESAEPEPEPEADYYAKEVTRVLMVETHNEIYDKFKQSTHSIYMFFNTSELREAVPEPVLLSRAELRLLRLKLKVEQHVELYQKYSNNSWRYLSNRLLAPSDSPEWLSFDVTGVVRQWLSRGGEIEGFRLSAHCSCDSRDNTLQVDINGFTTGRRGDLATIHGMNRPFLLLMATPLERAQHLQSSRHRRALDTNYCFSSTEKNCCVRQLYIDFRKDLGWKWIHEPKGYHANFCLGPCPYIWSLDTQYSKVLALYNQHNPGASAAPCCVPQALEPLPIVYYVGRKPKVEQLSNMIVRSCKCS
T3 sequence (Q8CG19 339-1712 limits assumed, chain 1 of 2): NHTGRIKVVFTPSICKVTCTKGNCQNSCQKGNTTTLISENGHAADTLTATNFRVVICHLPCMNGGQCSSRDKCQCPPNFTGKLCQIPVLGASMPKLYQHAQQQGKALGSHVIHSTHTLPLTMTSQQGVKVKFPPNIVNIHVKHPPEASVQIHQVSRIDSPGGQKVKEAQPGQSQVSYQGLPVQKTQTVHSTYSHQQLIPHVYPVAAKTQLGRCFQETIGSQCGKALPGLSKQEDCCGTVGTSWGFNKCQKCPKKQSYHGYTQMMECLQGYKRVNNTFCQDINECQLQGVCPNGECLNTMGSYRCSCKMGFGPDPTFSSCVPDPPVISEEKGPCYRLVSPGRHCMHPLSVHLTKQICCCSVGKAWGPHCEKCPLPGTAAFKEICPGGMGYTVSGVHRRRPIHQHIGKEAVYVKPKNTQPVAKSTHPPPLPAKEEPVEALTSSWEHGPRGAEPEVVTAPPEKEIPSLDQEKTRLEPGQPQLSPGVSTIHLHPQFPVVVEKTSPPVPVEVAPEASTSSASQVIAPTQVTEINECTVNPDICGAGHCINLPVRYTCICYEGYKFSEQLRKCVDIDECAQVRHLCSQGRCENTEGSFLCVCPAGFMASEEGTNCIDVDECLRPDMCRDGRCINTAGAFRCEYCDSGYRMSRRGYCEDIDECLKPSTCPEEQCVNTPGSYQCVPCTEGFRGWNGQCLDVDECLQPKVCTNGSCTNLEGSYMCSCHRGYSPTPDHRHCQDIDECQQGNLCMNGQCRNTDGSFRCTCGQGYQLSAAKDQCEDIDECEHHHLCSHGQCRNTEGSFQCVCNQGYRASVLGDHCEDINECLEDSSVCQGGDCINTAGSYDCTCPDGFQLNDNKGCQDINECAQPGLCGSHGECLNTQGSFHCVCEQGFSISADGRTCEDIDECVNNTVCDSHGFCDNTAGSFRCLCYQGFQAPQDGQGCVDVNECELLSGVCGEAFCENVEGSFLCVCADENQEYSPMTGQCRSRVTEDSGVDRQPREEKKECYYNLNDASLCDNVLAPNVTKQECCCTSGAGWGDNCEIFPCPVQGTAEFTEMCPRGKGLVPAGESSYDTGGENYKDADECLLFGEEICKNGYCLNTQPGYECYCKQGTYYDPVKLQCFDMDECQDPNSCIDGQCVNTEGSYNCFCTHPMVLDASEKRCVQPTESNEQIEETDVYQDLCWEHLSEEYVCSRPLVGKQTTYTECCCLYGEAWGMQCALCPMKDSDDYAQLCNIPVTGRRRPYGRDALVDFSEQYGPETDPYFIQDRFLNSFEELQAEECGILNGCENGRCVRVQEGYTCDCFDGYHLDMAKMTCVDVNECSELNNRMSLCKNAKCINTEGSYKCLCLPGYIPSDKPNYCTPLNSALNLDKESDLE
T3 sequence (P04202 30-390 limits assumed, chain 2 of 2): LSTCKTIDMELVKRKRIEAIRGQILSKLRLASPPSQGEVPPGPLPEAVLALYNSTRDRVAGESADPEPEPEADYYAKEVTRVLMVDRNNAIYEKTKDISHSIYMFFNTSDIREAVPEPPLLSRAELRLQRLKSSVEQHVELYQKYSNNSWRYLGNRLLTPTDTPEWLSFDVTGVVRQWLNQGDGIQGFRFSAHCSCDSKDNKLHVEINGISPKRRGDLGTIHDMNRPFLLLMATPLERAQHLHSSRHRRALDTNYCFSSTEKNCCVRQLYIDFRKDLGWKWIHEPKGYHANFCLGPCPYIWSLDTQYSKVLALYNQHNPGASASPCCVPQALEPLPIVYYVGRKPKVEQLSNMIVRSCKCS
T8 sequence (Q8BMT4 20-651 limits assumed, chain 1 of 2): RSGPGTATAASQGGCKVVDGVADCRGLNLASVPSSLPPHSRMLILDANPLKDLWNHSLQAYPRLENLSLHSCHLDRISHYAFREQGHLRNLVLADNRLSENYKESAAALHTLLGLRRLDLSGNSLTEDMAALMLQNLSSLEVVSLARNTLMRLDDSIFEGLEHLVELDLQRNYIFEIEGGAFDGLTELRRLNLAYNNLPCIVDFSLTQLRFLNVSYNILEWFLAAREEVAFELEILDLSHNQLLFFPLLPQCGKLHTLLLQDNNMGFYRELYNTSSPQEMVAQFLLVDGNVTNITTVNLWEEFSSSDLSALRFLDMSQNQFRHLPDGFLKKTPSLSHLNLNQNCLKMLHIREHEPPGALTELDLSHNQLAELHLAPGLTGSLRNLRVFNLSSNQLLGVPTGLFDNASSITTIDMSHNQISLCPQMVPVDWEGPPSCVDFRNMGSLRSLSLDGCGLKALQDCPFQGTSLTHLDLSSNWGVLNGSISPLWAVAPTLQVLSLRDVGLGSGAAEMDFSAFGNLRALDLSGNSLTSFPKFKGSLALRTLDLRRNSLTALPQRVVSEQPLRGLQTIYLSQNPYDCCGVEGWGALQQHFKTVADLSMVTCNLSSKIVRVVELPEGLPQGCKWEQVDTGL
T8 sequence (chain, as listed by the source limits assumed, chain 2 of 2): as the sequence (P04202 30-390 limits assumed, chain 2 of 2) above
T6 sequence (Q86YC3 19-650 limits assumed, chain 1 of 2): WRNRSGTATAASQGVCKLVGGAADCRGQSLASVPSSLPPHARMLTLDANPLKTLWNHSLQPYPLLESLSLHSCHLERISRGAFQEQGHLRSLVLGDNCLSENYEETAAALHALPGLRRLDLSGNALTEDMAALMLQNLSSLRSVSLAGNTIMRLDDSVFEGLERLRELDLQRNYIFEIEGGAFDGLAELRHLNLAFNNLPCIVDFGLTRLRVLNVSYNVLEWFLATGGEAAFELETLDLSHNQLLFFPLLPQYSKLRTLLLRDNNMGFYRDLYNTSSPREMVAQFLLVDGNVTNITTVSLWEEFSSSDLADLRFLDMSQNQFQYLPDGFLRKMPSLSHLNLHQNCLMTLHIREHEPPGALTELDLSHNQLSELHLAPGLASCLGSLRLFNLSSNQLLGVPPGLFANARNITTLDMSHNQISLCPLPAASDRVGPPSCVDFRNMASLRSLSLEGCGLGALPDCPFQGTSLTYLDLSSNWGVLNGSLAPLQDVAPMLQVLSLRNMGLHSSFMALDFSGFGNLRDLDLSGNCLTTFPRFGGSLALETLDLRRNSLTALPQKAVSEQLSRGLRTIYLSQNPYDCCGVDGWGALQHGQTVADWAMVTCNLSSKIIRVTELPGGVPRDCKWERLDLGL
T6 sequence (P01137 30-390 limits assumed, chain 2 of 2): as the sequence (P01137 30-390 limits assumed, chain 2 of 2) above
LTBP-proTGFβ1: transfected human proTGFβ1 presented by endogenous LTBP1/3 of LN229 cells (human), sequence (P01137 30-390): as the sequence (P01137 30-390 limits assumed, chain 2 of 2) above

B1: SR-AB42-HuFab (Fab, V domains shown)
VH: QVQLVESGGGVVQPGRSLRLSCAASGFTFRSYVMHWVRQAPGKGLEWVAVISHEGSLKYYADSVKGRFTISRDNSKNTLYLQMNSLRAEDTAVYYCARPRIAARRGGFGYWGQGTLVTVSS
VL: NFMLTQPHSVSESPGKTVTISCTRSSGNIDNNYVQWYQQRPGSSPTTVIYEDNQRPSGVPDRFSGSIDSSSNSASLTISGLKTEDEADYYCQSYDYDTQGVVFGGGTKLTVL
notes: Human Fab; also called SR-AB42 Fab; LTBP-SR-AB42 HuFab
As for B1, the “T1/2 Binding” value in [1] amounted to 102 min; in [2], 102 min; in test [3], 66 min; in [4], 72 min; in test [5], 1.9 min; in [6], 4.3 min. The “T1/2 Binding” value was determined as 5.1 min in test [7] and 7.4 min in test [8]. Besides, the Kd in [2] is 0.57 nM; in [3], 0.6 nM; in test [4], 0.68 nM; in [5], 144 nM; in [6] it was 134 nM; in test [7] it was 29 nM. Further, the Kd in test [8] was 110 nM; in [9], 0.35 nM; in test [10] it was 0.194 nM; in test [11], 2.66 nM; in test [12], 0.381 nM; in [13], 0.57 nM. Besides, the Kd in test [14] was 0.611 nM; in [15], 0.68 nM; in test [16], 145 nM; in [17], 134 nM; in [18] it was 29.1 nM; in test [19], 110 nM. For the same molecule, the Kd in [20] amounted to 38.9 nM; in test [21], 43.6 nM. The koff in test [9] was determined as 0.000142 s⁻¹; in test [10] it was 0.000105 s⁻¹; in [20] it was 0.00604 s⁻¹; in test [21] it was 0.00353 s⁻¹. Also, the kon is 405000 M⁻¹ s⁻¹ in test [9], 543000 M⁻¹ s⁻¹ in test [10], 155000 M⁻¹ s⁻¹ in test [20] and 80900 M⁻¹ s⁻¹ in test [21].

B2: SR-AB43 (antibody, IgG1, V domains shown)
VH: QVQLVESGGGVVQPGRSLRLSCAASGFTFRSYVMHWVRQAPGKGLEWVAVISHEGSLKYYADSVKGRFTISRDNSKNTLYLQMNSLRAEDTAVYYCARPRIAARRGGFGYWGQGTLVTVSS
VL: NFMLTQPHSVSESPGKTVTISCTRSSGNIDYNYVQWYQQRPGSSPTTVIYEDNVRPSGVPDRFSGSIDSSSNSASLTISGLKTEDEADYYCQSYDSDNQRVVFGGGTKLTVL
notes: Cycle 3, lineage SR-AB23
B2: the “IC50, endogenous hLTBP assay (CAGA12 luciferase)” value in [22] came to 1.76 nM. The “IC50, mLTBP1 assay (CAGA12 luciferase)” value in [23] stood at 0.319 nM. In addition, the Kd in test [24] turned out to be 0.649 nM; in [25], 0.178 nM; in test [26] it was 0.731 nM; in [27], 0.891 nM. In addition, the koff in test [24] came out at 0.000159 s⁻¹; in test [25] it was 6e-05 s⁻¹. The kon was found to be 244000 M⁻¹ s⁻¹ in [24] and 337000 M⁻¹ s⁻¹ in [25]. Further, the binding result in test [28] is given as “no binding (tested: antigen 100 nM)”.
